Earlier results on 3 substances are cited in PMC12818765.

Targets include Asp101 (UniProt position 119, KKIVSDGNGMN); Asp119 (UniProt position 137, RCKGTDVQAWI); Asp18 (UniProt position 36, KRHGLDNYRGY); Asp48 (UniProt position 66, TNRNTDGSTDY); Asp52 (UniProt position 70, TDGSTDYGILQ); Asp66 (UniProt position 84, RWWCNDGRTPG); Asp87 (UniProt position 105, ALLSSDITASV); Cterm129 (UniProt position 147, IRGCRL-----); Glu35 (UniProt position 53, CAAKFESNFNT); Glu7 (UniProt position 25, VFGRCELAAAM); His15 (UniProt position 33, AAMKRHGLDNY); Lys1 (UniProt position 19, LAALGKVFGRC); Lys116 (UniProt position 134, WRNRCKGTDVQ); Lys13 (UniProt position 31, LAAAMKRHGLD); Lys33 (UniProt position 51, WVCAAKFESNF); Lys96 (UniProt position 114, SVNCAKKIVSD); Lys97 (UniProt position 115, VNCAKKIVSDG); Nterm1 (UniProt position 19, LAALGKVFGRC); Tyr20 (UniProt position 38, HGLDNYRGYSL); Tyr23 (UniProt position 41, DNYRGYSLGNW); Tyr53 (UniProt position 71, DGSTDYGILQI).

The target in a further data set is Asp40 (UniProt position 122, RLLLVDTPETK). The following applies: not stated.
The target of the next data set is Asp95 (UniProt position 177, AYIYADGKMVN). The following applies: not stated.
For another data set, the target named is Glu10 (UniProt position 92, KKLHKEPATLI). To be noted: not stated.
For the next data set, the target named is Glu101 (UniProt position 183, GKMVNEALVRQ). The following applies: not stated.
The next data set deals with Glu122 (UniProt position 204, PNNTHEQHLRK). The following applies: not stated.
The target of the next data set is Glu129 (UniProt position 211, HLRKSEAQAKK). To be noted: not stated.
The next data set concerns the target Glu135 (UniProt position 217, AQAKKEKLNIW). The following applies: not stated.
Another data set has as its target Glu43 (UniProt position 125, LVDTPETKHPK). The following applies: not stated.
The next data set addresses Glu52 (UniProt position 134, PKKGVEKYGPE). The following applies: not stated.
The target in another data set is Glu57 (UniProt position 139, EKYGPEASAFT). The following applies: not stated.
The target in another data set is Glu67 (UniProt position 149, TKKMVENAKKI). The following applies: not stated.
For a further data set, the target named is Glu73 (UniProt position 155, NAKKIEVEFDK). To be noted: not stated.
A further data set addresses Glu75 (UniProt position 157, KKIEVEFDKGQ). The following applies: not stated.
Another data set has as its target His121 (UniProt position 203, KPNNTHEQHLR). To be noted: not stated.
For another data set, the target named is His124 (UniProt position 206, NTHEQHLRKSE). To be noted: not stated.
Another data set has as its target His46 (UniProt position 128, TPETKHPKKGV). To be noted: not stated.
A further data set has as its target His8 (UniProt position 90, STKKLHKEPAT). The following applies: not stated.

One may read the pKa as the negative logarithm of the acid dissociation constant. Take “Hen egg-white lysozyme (HEWL, lysozyme C) (Gallus gallus)”: the pKa with Asp101 is reported as 4.09; with Asp119, 3.20; with Asp18 it was 2.66; with Asp48 it was 1.60; with Asp52, 3.68; with Asp66, 0.90. For the same substance, the pKa was 2.07 with Asp87; 2.75 with Cterm129; 6.20 with Glu35; 2.85 in the data set with Glu7; 5.36 in the data set with His15; 10.90 with Lys1. Besides, the pKa with Lys116 was 10.40; in the data set with Lys13, 10.60; with Lys33, 10.60; with Lys96 it was 10.80; with Lys97 it was 10.30; in the data set with Nterm1 it was 7.90. Moreover, the pKa with Tyr20 is 10.30; with Tyr23 it was 9.80; in the data set with Tyr53, 12.10.

As for “Staphylococcal nuclease (SNase), form used for the Asp/Glu pKa values (Staphylococcus aureus)”, the pKa in the data set with Asp40 is 3.87; with Asp95, 2.16; with Glu10 it was 2.82; in the data set with Glu101, 3.81; with Glu122 it was 3.89; in the data set with Glu129 it was 3.75. The pKa is 3.76 with Glu135; 4.32 with Glu43; 3.93 with Glu52; 3.49 in the data set with Glu57; 3.76 in the data set with Glu67; 3.31 with Glu73. Further, the pKa in the data set with Glu75 is reported as 3.26.

For “Staphylococcal nuclease (SNase), form used for the histidine pKa values (Staphylococcus aureus)”, the pKa was 5.30 with His121, 5.73 with His124, 5.86 with His46 and 6.52 with His8.
